Reference: PMC3167755

Target: T1, Fur-His6 (CjFur-His6) (Campylobacter jejuni 81-176) (UniProt P0C631)
T1 sequence: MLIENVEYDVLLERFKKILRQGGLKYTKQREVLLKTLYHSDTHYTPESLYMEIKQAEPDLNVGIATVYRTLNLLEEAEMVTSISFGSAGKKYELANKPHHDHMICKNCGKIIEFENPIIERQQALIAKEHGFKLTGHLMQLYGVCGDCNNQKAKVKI
Experiment: EMSA
Conditions: 10 mM Tris-HCl pH 7.5, 1 mM MgCl2, 0.5 mM DTT, 50 mM KCl, 100 uM MnCl2 (omitted where stated), 1 ug poly(dI-dC), 50 ug BSA, 5% glycerol, 20 ul, ~28 fmol DNA …

“GCTAATGCAAAACTTGAATAAAATACAAGAGCTAAAACAAATTTGCAAAAAAATTTACGCATATTATATCCTTGGTTAAATAAAATTTTCAAAGATAATTTTATTTAAAAAAATAAATAAGCCCAAATTTATTTTTGGGCTTATTGTTATTTTTTAGGATTGAATGCTTGATCAACACTAAAAGGCATTGCTTGATAACCCGTGCCTGAACCGCTAAATTGAATTTGAACCGAAGGCTCCTTAGCACCCCAGTTAAATTCATCAATTTCAGGTTTTGGCTCTCCAAGACTTACACCT (double strand) [dsbA1 promoter region]” was tested, and the binding was “no binding”.
